Read-outs that look alike come from different tables or passages of the source. Marks after values point to notes of the source that are not given here.
Tests used:
hNS/PC neurospheres [1] = assay: Neuronal differentiation of plated neurospheres (neuron-forming neurospheres); assay type: cell-based, human
Protocol: (§1) Neurospheres were used to model the role of LPA in neuronal differentiation as described in commonly-owned U.S. patent application publication no. US20110076269 and U.S. Pat. No. 8,604,172. […] LPA also interferes with an additional differentiation step, namely, the differentiation of NSC toward mature cells.
Using the same conditions used in Example 2, above, for LPA treatment alone, plated neurospheres were treated with 10 μM LPA alone, or with anti-LPA antibody B3 or B7 (1 mg/ml) alone, or with 10 μM LPA in combination with 1 mg/ml of antibody B3 or B7. Similarly, cells were treated with 10 μM LPA alone, humanized anti-LPA antibody LT3015 alone (1 mg/ml), or with 10 μM LPA in combination with 1 mg/ml LT3015. The percent of neuron-forming neurospheres was quantitated as in Example 2 (beta-tubulin staining and quantification of neuron-forming spheres, as described in Dottori, et al (2008)). […] Neurosphere samples treated with B3 antibody alone had neuron-forming neurospheres equivalent to control (100%). […] The antibody B7, under similar conditions, had little to no effect in this experiment (37.00±5.31% of control).
Using the conditions described in the Example above, […] were plated onto laminin for neuronal differentiation in NBM medium (3 days), with or without LPA (10 μM), with or without antibody to LPA at 1 mg/ml (B3, B7, or the humanized antibody LT3015, tested singly with or without LPA).

hNS/PC neurospheres [2] = assay: Neurosphere formation; assay type: cell-based, human; settings: LPA 10 uM
Excerpt: as §1
Anti-LPA antibodies have been found by the inventors to block LPA inhibition of neurosphere formation, as described in commonly-owned U.S. patent application publication no. US20110076269 and U.S. Pat. No. 8,604,172.

adult mouse NSC = assay: Neuronal differentiation of adult mouse NSC; assay type: cell-based
Excerpt: However, and similarly to data obtained in human NSC, LPA inhibited the neuronal differentiation of adult mouse NSC by maintaining them as NSC when plated in conditions normally inducing neuronal differentiation. […] These effects were independent of apoptosis or proliferation.

[3] = Competition ELISA, competitor lipid 14:0 LPA; assay type: binding; settings: maximum inhibition
Excerpt: (§2) Although polyclonal antibodies against naturally-occurring LPA have been reported in the literature (Chen, et al., Bioorg Med Chem Lett. 2000 Aug. 7; 10(15):1691-3), monoclonal antibodies to LPA had not been described until Sabbadini, et al., U.S. patent application publication no. 20080145360, and U.S. Pat. No. 8,158,124, both of which are commonly owned herewith. The former publication describes the production and characterization of a series of murine monoclonal antibodies against LPA and the latter describes, among other things, a humanized monoclonal antibody against LPA. IC50: Half maximum inhibition concentration; MI: Maximum inhibition (% of binding in the absence of inhibitor); ---: not estimated because of weak inhibition. A high inhibition result indicates recognition of the competitor lipid by the antibody.

[4] = Competition ELISA, competitor lipid 16:0 LPA; assay type: binding; settings: maximum inhibition
Excerpt: as §2

[5] = Competition ELISA, competitor lipid 18:1 LPA; assay type: binding; settings: maximum inhibition
Excerpt: as §2

[6] = Competition ELISA, competitor lipid 18:2 LPA; assay type: binding; settings: maximum inhibition
Excerpt: as §2

[7] = Competition ELISA, competitor lipid 20:4 LPA; assay type: binding; settings: maximum inhibition
Excerpt: as §2

[8] = Competition ELISA specificity, competitor lipid LPC; assay type: binding; settings: n = 3
Protocol: (§3) The specificity of the anti-LPA mAbs was assessed for their binding to LPA-related biolipids such as distearoyl-phosphatidic acid, lysophosphatidylcholine, SIP, ceramide, and ceramide-1-phosphate.

[9] = Competition ELISA specificity, competitor lipid S1P; assay type: binding; settings: n = 3
[10] = Competition ELISA specificity, competitor lipid C1P; assay type: binding; settings: n = 3
[11] = Competition ELISA specificity, competitor lipid Cer; assay type: binding; settings: n = 3
[12] = Competition ELISA specificity, competitor lipid DSPA (distearoyl PA); assay type: binding; settings: n = 3
Protocol: as §3

[13] = Surface plasmon resonance (BiaCore) and direct binding ELISA of LT3000; settings: Table 12
Excerpt: (§4) The murine antibody is a full-length IgG1 k isotype antibody composed of two identical light chains and two identical heavy chains with a total molecular weight of 155.5 kDa.

[14] = Specificity of LT3000 against other lipids and proteins; assay type: binding; settings: over 100 different bioactive lipids and proteins, including over 20 bioactive lipids
Excerpt: as §4

Apparent Tm of antibody = assay type: physicochemical; settings: pH7.4
Solubility of antibody = assay type: physicochemical; settings: 6.6 mM phosphate, 154 mM sodium chloride, pH 7.4
SKOV3 cell migration = assay: Migration assay, SKOV3 cells triggered by LPA; assay type: cell-based; settings: Lpathomab, 1 mM 18:1 LPA, SKOV3, n = 3
SKOV3 cell invasion = assay: Invasion assay, SKOV3 cells triggered by LPA; assay type: cell-based; set-up: dose or concentration left out as unconfirmed; settings: Lpathomab 14:0 LPA, SKOV3, n = 2
human IL-8 = assay: LPA-induced IL-8 release in SKOV3 conditioned media; assay type: cell-based; set-up: dose or concentration left out as unconfirmed; settings: Lpathomab 18:1 LPA, SKOV3, n = 3
human IL-6 = assay: LPA-induced IL-6 release in SKOV3 conditioned media; assay type: cell-based; settings: Lpathomab 300-600 mg/mL, 1 mM 18:1 LPA, SKOV3, n = 3
SKOV3 cells = assay: Apoptosis: Taxol induced caspase-3 activation in SKOV3 cells, LPA protection; assay type: cell-based; settings: Lpathomab, 1 mM Taxol, 1 mM 18:1 LPA, SKOV3, n = 1
[15] = Binding affinity of humanized, chimeric and murine anti-LPA antibodies
[16] = Specificity / cross-reactivity profile; assay type: binding
interleukin-8 (IL-8) = assay: IL-8 release from ovarian cancer cells; assay type: cell-based
Excerpt: Five humanized variants were further assessed in in vitro cell assays. LPA is important in eliciting release of interleukin-8 (IL-8) from cancer cells.

[17] = cited from earlier work
[18] = cited from earlier work; remark: listed apart in the source
[19] = cited from earlier work; remark: listed apart in the source
[20] = cited from earlier work; remark: listed apart in the source
[21] = cited from earlier work; remark: listed apart in the source

lysophosphatidic acid [LPA]
decrease in neuron-forming spheres (hNS/PC neurospheres [1]; 10 uM LPA): ~80% | neuron-forming spheres, LPA alone (Example 4) (hNS/PC neurospheres [1]; 10 μM LPA, 3 days): approximately 26 % of control | neurosphere formation, LPA (hNS/PC neurospheres [2]): inhibited | neurosphere formation or growth of mouse NSC (adult mouse NSC): did not modify | βIII-tubulin expression (differentiated neurons) (adult mouse NSC; LPA (10 NM), three days, untreated 57.12±18.42%): 26.25±2.08 % of total cells | nestin positive (undifferentiated NSCs) (adult mouse NSC; LPA (10 NM), three days, untreated 58.01±6.20): 87.55±3.20 % of total cells

B1: B7: murine anti-LPA monoclonal antibody, full-length IgG1k; VH SEQ ID NO: 3, VL SEQ ID NO: 4 (antibody, V domains shown)
VH: QVQLQQSGAELVRPGTSVKVSCKASGYGFINYLIEWIKQRPGQGLEWIGLINPGSDYTNYNENFKGKATLTADKSSSTAYMHLSSLTSEDSAVYFCARRFGYYGSGNYFDYWGQGTTLTVSS
VL: DVVMTQTPLSLPVSLGDQASISCTSGQSLVHINGNTYLHWYLQKPGQSPKLLIYKVSNLFSGVPDRFSGSGSGTDFTLKISRVEAEDLGVYFCSQSTHFPFTFGTGTKLEIK
MI, competitor lipid 14:0 LPA [3]: 61.3% | MI, competitor lipid 16:0 LPA [4]: 62.9% | MI, competitor lipid 18:1 LPA [5]: 100% | MI, competitor lipid 18:2 LPA [6]: 100% | MI, competitor lipid 20:4 LPA [7]: 67% | MI, competitor lipid LPC [8]: 0% | MI, competitor lipid S1P [9]: 2.7% | MI, competitor lipid C1P [10]: 1.0% | MI, competitor lipid Cer [11]: 1% | MI, competitor lipid DSPA [12]: 0% | Kd [13]: 0.001 to 0.05 nM | binding affinity for other bioactive lipids and proteins (specificity) [14]: no binding affinity | Apparent Tm (Apparent Tm of antibody): 67 °C at pH7.4 | Solubility (Solubility of antibody): >40 mg/mL in 6.6 mM phosphate, | Migration % Inhibition (over LPA taken as 100) (SKOV3 cell migration): 35* % | Invasion % Inhibition (over LPA taken as 100) (SKOV3 cell invasion): 95* % | IL-8 Release % Inhibition (over LPA taken as 100) (human IL-8): 20% | IL-6 Release % Inhibition (over LPA taken as 100) (human IL-6): 23* % | Apoptosis % Induction (over LPA + TAXOL taken as 100) (SKOV3 cells): 79% | binding affinity for LPA (in words) [15]: low picomolar range | cross-reactivity to LPC, PA, 14:0 and 18:1 LPA, cPA, PC [16]: no cross-reactivity | IL-8 release from ovarian cancer cells (interleukin-8 (IL-8)): reduced IL-8 release | neuron-forming neurospheres, LPA plus antibody (pool of data) (hNS/PC neurospheres [1]; 10 μM LPA in combination with 1 mg/ml antibody): 37.00±5.31 % of control | number of neurons in neurospheres (comparison between antibodies) (hNS/PC neurospheres [1]; 10 μM LPA plus antibody 1 mg/ml): lesser number of neurons | neuron-forming neurospheres, LPA plus antibody (Example 4) (hNS/PC neurospheres [1]; 10 μM LPA, antibody 1 mg/ml, 3 days on laminin in NBM medium): 50 % of control | IC50 ([17]; competition ELISA, half maximum inhibition concentration, read-out: 14:0 LPA IC50): 105 nM | 14:0 LPA MI ([17]; maximum inhibition (% of binding in the absence of inhibitor)): 61.3% | IC50 ([18]; competition ELISA, read-out: 16:0 LPA IC50): 483 nM | 16:0 LPA MI ([18]; maximum inhibition): 62.9% | IC50 ([19]; competition ELISA, read-out: 18:1 LPA IC50): > 2000 nM | 18:1 LPA MI ([19]; maximum inhibition): 100% | IC50 ([20]; competition ELISA, read-out: 18:2 LPA IC50): 1490 nM | 18:2 LPA MI ([20]; maximum inhibition): 100% | IC50 ([21]; competition ELISA, read-out: 20:4 LPA IC50): 161 nM | 20:4 LPA MI ([21]; maximum inhibition): 67%

Reference: patent US20170088634A1, “TREATMENT OF NEUROTRAUMA USING ANTIBODIES TO LYSOPHOSPHATIDIC ACID” (priority 2012, published 2017)
